# Data from patent US20240116985A1 (published 2024).
# Starred links: 1 amine or outer side, 2 acyl side, 3 side chain; linkers in the order of their positions; H or OH if unused. Positions of bridges follow the written chain, without caps; N, C: chain ends. Non-standard residues stand in square brackets, D forms with d. Primed or numbered codes have the meaning given here. *: point of attachment. PyrS2″ = (S)-3-amino-1-((pent-4-en-1-yloxy)carbonyl)pyrrolidine-3-carboxylic acid (stapling residue), C=CCCCOC(=O)N1CC[C@@](N[*:1])(C(=O)[*:2])C1; B5(4) = 2,2-bis(4-pentenyl)glycine = 2-amino-2-(pent-4-en-1-yl)hept-6-enoic acid (stitching residue), C=CCCCC(CCCC=C)(N[*:1])C(=O)[*:2]; B5(3) = 2,2-bis(4-pentenyl)glycine (stitching residue), C=CCCCC(CCCC=C)(N[*:1])C(=O)[*:2]; Phe(2-Cl) = N[C@@H](Cc1ccccc1Cl)C(=O)O; Bta = N[C@@H](Cc1csc2ccccc12)C(=O)O; αAllylPro = C=CC[C@@]1(C(=O)O)CCCN1; tBuAla = CC(C)(C)C[C@H](N)C(=O)O; 3Thi = N[C@@H](Cc1ccsc1)C(=O)O; Leu(ol) = CC(C)C[C@H](N)CO; NH(CH2)6NH2 = NCCCCCCN*; Alaol = C[C@@H](CO)N*
# T1: beta-catenin in DLD1 TCF/LEF luciferase reporter cells (UniProt P35222 2-781)
# T1 sequence (looked up): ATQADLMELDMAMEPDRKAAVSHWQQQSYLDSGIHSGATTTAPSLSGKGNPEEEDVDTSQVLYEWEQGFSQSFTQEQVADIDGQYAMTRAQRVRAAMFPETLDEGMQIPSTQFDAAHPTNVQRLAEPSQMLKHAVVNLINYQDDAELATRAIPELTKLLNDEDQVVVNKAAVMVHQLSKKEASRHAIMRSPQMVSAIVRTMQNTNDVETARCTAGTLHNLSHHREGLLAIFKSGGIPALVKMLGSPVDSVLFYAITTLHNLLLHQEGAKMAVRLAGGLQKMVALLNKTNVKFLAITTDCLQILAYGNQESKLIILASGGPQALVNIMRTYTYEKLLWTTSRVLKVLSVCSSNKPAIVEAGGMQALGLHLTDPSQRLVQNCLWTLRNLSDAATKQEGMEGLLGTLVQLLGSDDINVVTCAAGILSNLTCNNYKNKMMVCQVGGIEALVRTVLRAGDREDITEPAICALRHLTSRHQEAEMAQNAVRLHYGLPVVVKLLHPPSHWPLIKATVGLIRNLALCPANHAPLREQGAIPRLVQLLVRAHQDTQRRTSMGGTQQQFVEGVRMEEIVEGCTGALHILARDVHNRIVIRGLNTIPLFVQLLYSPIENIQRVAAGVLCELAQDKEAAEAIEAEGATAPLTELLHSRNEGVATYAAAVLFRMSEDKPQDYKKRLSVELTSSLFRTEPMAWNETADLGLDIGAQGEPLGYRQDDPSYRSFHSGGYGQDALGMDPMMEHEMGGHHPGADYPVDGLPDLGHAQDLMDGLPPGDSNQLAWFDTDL
# T2: B-cat-Halo (beta-catenin HaloTag NanoBRET construct expressed in HEK293 cells) (UniProt P35222 2-781)
# T2 sequence (looked up): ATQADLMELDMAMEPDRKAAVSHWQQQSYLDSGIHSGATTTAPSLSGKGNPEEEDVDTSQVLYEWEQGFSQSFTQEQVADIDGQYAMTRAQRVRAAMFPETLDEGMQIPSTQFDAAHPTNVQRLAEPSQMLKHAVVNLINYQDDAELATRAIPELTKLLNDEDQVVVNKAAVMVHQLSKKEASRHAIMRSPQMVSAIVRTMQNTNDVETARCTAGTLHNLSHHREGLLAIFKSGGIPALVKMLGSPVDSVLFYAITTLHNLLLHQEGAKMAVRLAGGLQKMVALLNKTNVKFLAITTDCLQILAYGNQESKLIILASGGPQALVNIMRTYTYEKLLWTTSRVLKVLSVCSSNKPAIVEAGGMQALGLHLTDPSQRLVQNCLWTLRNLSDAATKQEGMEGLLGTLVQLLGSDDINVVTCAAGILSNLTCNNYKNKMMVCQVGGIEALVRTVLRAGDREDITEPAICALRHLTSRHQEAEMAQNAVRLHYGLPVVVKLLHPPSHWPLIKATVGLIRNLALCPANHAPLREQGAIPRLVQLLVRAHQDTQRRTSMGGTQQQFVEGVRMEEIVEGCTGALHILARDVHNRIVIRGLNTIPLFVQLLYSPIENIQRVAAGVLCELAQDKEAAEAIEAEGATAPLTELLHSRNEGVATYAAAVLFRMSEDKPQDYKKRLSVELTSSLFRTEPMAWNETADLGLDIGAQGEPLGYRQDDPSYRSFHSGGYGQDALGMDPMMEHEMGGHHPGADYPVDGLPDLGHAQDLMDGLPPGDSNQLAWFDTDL
# T3: B-cat-Halo (Nano-BRET construct expressed in HEK293 cells) (UniProt P35222 1-781)
# T3 sequence (looked up): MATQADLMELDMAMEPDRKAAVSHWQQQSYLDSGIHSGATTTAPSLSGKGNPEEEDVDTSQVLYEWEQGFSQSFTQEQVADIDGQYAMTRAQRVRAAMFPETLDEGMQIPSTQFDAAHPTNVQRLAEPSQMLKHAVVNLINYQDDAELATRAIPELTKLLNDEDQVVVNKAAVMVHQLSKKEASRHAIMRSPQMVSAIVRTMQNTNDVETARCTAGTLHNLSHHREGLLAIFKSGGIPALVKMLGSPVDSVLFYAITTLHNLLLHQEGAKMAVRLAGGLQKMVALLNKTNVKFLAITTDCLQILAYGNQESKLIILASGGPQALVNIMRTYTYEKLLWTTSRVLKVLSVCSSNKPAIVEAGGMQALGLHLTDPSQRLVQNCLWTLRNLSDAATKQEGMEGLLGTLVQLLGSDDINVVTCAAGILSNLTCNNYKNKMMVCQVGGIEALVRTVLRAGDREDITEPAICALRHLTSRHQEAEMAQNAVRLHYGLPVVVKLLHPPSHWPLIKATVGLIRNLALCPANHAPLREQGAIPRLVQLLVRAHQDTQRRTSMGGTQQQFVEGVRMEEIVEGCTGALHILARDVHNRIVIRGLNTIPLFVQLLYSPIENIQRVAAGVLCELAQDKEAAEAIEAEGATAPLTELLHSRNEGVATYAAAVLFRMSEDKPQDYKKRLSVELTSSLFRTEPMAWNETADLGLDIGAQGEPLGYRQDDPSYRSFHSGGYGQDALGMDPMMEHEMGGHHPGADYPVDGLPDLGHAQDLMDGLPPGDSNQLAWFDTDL
# How the values were obtained:
# Assay in all cases: cell-based or functional assay
# [1] = target: T1, beta-catenin in DLD1 TCF/LEF luciferase …
# [2] = target: T2, B-cat-Halo (beta-catenin HaloTag …)
# [3] = target: T3, B-cat-Halo (Nano-BRET construct …)
DLD1 4% Abs IC50 [1] [µM],NanoBRET Abs IC50 [2] [µM],NanoBRET IC50 [3] [µM],Binder
10.4,> 20,–,"Ac-[αAllylPro]D[tBuAla][B5(4)]DDAAFN[PyrS2″][Phe(2-Cl)][Bta][Leu(ol)] (staple 1-4, 4-11) [I-1080]"
10.6,16.7,–,"Ac-[αAllylPro]D[tBuAla][B5(3)]DDAAFN[PyrS2″][Phe(2-Cl)][Bta]-Alaol (staple 1-4, 4-11) [I-1081]"
–,–,22.5,"Ac-[αAllylPro]D[tBuAla][B5(3)]DDAAFN[PyrS2″][3Thi][Bta]Q-{NH(CH2)6NH2} (staple 1-4, 4-11; not fully specified; printed as Ac-PL3-Asp-Npg-B5-Asp-Asp-Ala-Ala-Phe-Asn-PyrS2-3Thi-BztA-Gln-6AmHex) [I-882]"
